Non-standard residues stand in square brackets, D forms with d. NMeF = CN[C@@H](Cc1ccccc1)C(=O)O; NMeL = CN[C@@H](CC(C)C)C(=O)O; NMeV = CN[C@H](C(=O)O)C(C)C; Nle = CCCC[C@H](N)C(=O)O
B1: Nle3-VF (peptide)
peptide: H-QKL[NMeV]F[NMeF]AED[Nle][Nle][Nle]NKGAIIGL[Nle]VGGVV-OH
SMILES: CCCC[C@H](NC(=O)[C@H](CC(=O)O)NC(=O)[C@H](CCC(=O)O)NC(=O)[C@H](C)NC(=O)[C@H](Cc1ccccc1)N(C)C(=O)[C@H](Cc1ccccc1)NC(=O)[C@H](C(C)C)N(C)C(=O)[C@H](CC(C)C)NC(=O)[C@H](CCCCN)NC(=O)[C@@H](N)CCC(N)=O)C(=O)N[C@@H](CCCC)C(=O)N[C@@H](CCCC)C(=O)N[C@@H](CC(N)=O)C(=O)N[C@@H](CCCCN)C(=O)NCC(=O)N[C@@H](C)C(=O)N[C@H](C(=O)N[C@H](C(=O)NCC(=O)N[C@@H](CC(C)C)C(=O)N[C@@H](CCCC)C(=O)N[C@H](C(=O)NCC(=O)NCC(=O)N[C@H](C(=O)N[C@H](C(=O)O)C(C)C)C(C)C)C(C)C)[C@@H](C)CC)[C@@H](C)CC
B2: Nle3-LF (peptide)
peptide: H-QK[NMeL]V[NMeF]FAED[Nle][Nle][Nle]NKGAIIGL[Nle]VGGVV-OH
SMILES: CCCC[C@H](NC(=O)[C@H](CC(=O)O)NC(=O)[C@H](CCC(=O)O)NC(=O)[C@H](C)NC(=O)[C@H](Cc1ccccc1)NC(=O)[C@H](Cc1ccccc1)N(C)C(=O)[C@@H](NC(=O)[C@H](CC(C)C)N(C)C(=O)[C@H](CCCCN)NC(=O)[C@@H](N)CCC(N)=O)C(C)C)C(=O)N[C@@H](CCCC)C(=O)N[C@@H](CCCC)C(=O)N[C@@H](CC(N)=O)C(=O)N[C@@H](CCCCN)C(=O)NCC(=O)N[C@@H](C)C(=O)N[C@H](C(=O)N[C@H](C(=O)NCC(=O)N[C@@H](CC(C)C)C(=O)N[C@@H](CCCC)C(=O)N[C@H](C(=O)NCC(=O)NCC(=O)N[C@H](C(=O)N[C@H](C(=O)O)C(C)C)C(C)C)C(C)C)[C@@H](C)CC)[C@@H](C)CC
B3: L3-VF (peptide)
peptide: H-QKL[NMeV]F[NMeF]AEDLLLNKGAIIGL[Nle]VGGVV-OH
SMILES: CCCC[C@H](NC(=O)[C@H](CC(C)C)NC(=O)CNC(=O)[C@@H](NC(=O)[C@@H](NC(=O)[C@H](C)NC(=O)CNC(=O)[C@H](CCCCN)NC(=O)[C@H](CC(N)=O)NC(=O)[C@H](CC(C)C)NC(=O)[C@H](CC(C)C)NC(=O)[C@H](CC(C)C)NC(=O)[C@H](CC(=O)O)NC(=O)[C@H](CCC(=O)O)NC(=O)[C@H](C)NC(=O)[C@H](Cc1ccccc1)N(C)C(=O)[C@H](Cc1ccccc1)NC(=O)[C@H](C(C)C)N(C)C(=O)[C@H](CC(C)C)NC(=O)[C@H](CCCCN)NC(=O)[C@@H](N)CCC(N)=O)[C@@H](C)CC)[C@@H](C)CC)C(=O)N[C@H](C(=O)NCC(=O)NCC(=O)N[C@H](C(=O)N[C@H](C(=O)O)C(C)C)C(C)C)C(C)C
B4: L3-LF (peptide)
peptide: H-QK[NMeL]V[NMeF]FAEDLLLNKGAIIGL[Nle]VGGVV-OH
SMILES: CCCC[C@H](NC(=O)[C@H](CC(C)C)NC(=O)CNC(=O)[C@@H](NC(=O)[C@@H](NC(=O)[C@H](C)NC(=O)CNC(=O)[C@H](CCCCN)NC(=O)[C@H](CC(N)=O)NC(=O)[C@H](CC(C)C)NC(=O)[C@H](CC(C)C)NC(=O)[C@H](CC(C)C)NC(=O)[C@H](CC(=O)O)NC(=O)[C@H](CCC(=O)O)NC(=O)[C@H](C)NC(=O)[C@H](Cc1ccccc1)NC(=O)[C@H](Cc1ccccc1)N(C)C(=O)[C@@H](NC(=O)[C@H](CC(C)C)N(C)C(=O)[C@H](CCCCN)NC(=O)[C@@H](N)CCC(N)=O)C(C)C)[C@@H](C)CC)[C@@H](C)CC)C(=O)N[C@H](C(=O)NCC(=O)NCC(=O)N[C@H](C(=O)N[C@H](C(=O)O)C(C)C)C(C)C)C(C)C
B5: F3-VF (peptide)
peptide: H-QKL[NMeV]F[NMeF]AEDFFFNKGAIIGL[Nle]VGGVV-OH
SMILES: CCCC[C@H](NC(=O)[C@H](CC(C)C)NC(=O)CNC(=O)[C@@H](NC(=O)[C@@H](NC(=O)[C@H](C)NC(=O)CNC(=O)[C@H](CCCCN)NC(=O)[C@H](CC(N)=O)NC(=O)[C@H](Cc1ccccc1)NC(=O)[C@H](Cc1ccccc1)NC(=O)[C@H](Cc1ccccc1)NC(=O)[C@H](CC(=O)O)NC(=O)[C@H](CCC(=O)O)NC(=O)[C@H](C)NC(=O)[C@H](Cc1ccccc1)N(C)C(=O)[C@H](Cc1ccccc1)NC(=O)[C@H](C(C)C)N(C)C(=O)[C@H](CC(C)C)NC(=O)[C@H](CCCCN)NC(=O)[C@@H](N)CCC(N)=O)[C@@H](C)CC)[C@@H](C)CC)C(=O)N[C@H](C(=O)NCC(=O)NCC(=O)N[C@H](C(=O)N[C@H](C(=O)O)C(C)C)C(C)C)C(C)C
B6: F3-LF (peptide)
peptide: H-QK[NMeL]V[NMeF]FAEDFFFNKGAIIGL[Nle]VGGVV-OH
SMILES: CCCC[C@H](NC(=O)[C@H](CC(C)C)NC(=O)CNC(=O)[C@@H](NC(=O)[C@@H](NC(=O)[C@H](C)NC(=O)CNC(=O)[C@H](CCCCN)NC(=O)[C@H](CC(N)=O)NC(=O)[C@H](Cc1ccccc1)NC(=O)[C@H](Cc1ccccc1)NC(=O)[C@H](Cc1ccccc1)NC(=O)[C@H](CC(=O)O)NC(=O)[C@H](CCC(=O)O)NC(=O)[C@H](C)NC(=O)[C@H](Cc1ccccc1)NC(=O)[C@H](Cc1ccccc1)N(C)C(=O)[C@@H](NC(=O)[C@H](CC(C)C)N(C)C(=O)[C@H](CCCCN)NC(=O)[C@@H](N)CCC(N)=O)C(C)C)[C@@H](C)CC)[C@@H](C)CC)C(=O)N[C@H](C(=O)NCC(=O)NCC(=O)N[C@H](C(=O)N[C@H](C(=O)O)C(C)C)C(C)C)C(C)C

Target: islet amyloid polypeptide (IAPP) (human) (UniProt P10997)
Sequence (P10997 34-70): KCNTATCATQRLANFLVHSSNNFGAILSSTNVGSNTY

Q: For B1, which IC50 of inhibitory effect on IAPP-mediated cell damage (MTT reduction, RIN5fm cells) is on record?
A: The IC50 of inhibitory effect on IAPP-mediated cell damage (MTT reduction, RIN5fm cells) was 65 nM.

Q: How did the IC50 of inhibitory effect on IAPP-mediated cell damage (MTT reduction, RIN5fm cells) turn out when B2 was run?
A: The IC50 of inhibitory effect on IAPP-mediated cell damage (MTT reduction, RIN5fm cells) was 82.1 nM.

Q: How did the IC50 of inhibitory effect on IAPP-mediated cell damage (MTT reduction, RIN5fm cells) turn out when B3 was run?
A: Its IC50 of inhibitory effect on IAPP-mediated cell damage (MTT reduction, RIN5fm cells) is 112 nM.

Q: For B4, which IC50 of inhibitory effect on IAPP-mediated cell damage (MTT reduction, RIN5fm cells) is on record?
A: Its IC50 of inhibitory effect on IAPP-mediated cell damage (MTT reduction, RIN5fm cells) is 133 nM.

Q: Which IC50 of inhibitory effect on IAPP-mediated cell damage (MTT reduction, RIN5fm cells) does the source give for B5 here?
A: The IC50 of inhibitory effect on IAPP-mediated cell damage (MTT reduction, RIN5fm cells) was 78.5 nM.

Q: With B6 as the binder, how does the IC50 of inhibitory effect on IAPP-mediated cell damage (MTT reduction, RIN5fm cells) read?
A: The IC50 of inhibitory effect on IAPP-mediated cell damage (MTT reduction, RIN5fm cells) was 41.7 nM.

Target: Aβ42 (Homo sapiens (Human)) (UniProt P05067)

Q: For B1, which IC50 of inhibitory effect on Aβ42-mediated cell damage (MTT reduction, PC12 cells) is on record?
A: Its IC50 of inhibitory effect on Aβ42-mediated cell damage (MTT reduction, PC12 cells) is 367 nM.

Q: How did the IC50 of inhibitory effect on Aβ42-mediated cell damage (MTT reduction, PC12 cells) turn out when B3 was run?
A: The IC50 of inhibitory effect on Aβ42-mediated cell damage (MTT reduction, PC12 cells) was 261 nM.

Q: How did the IC50 of inhibitory effect on Aβ42-mediated cell damage (MTT reduction, PC12 cells) turn out when B5 was run?
A: Its IC50 of inhibitory effect on Aβ42-mediated cell damage (MTT reduction, PC12 cells) is 1030 nM.

Q: For B6, which IC50 of inhibitory effect on Aβ42-mediated cell damage (MTT reduction, PC12 cells) is on record?
A: The IC50 of inhibitory effect on Aβ42-mediated cell damage (MTT reduction, PC12 cells) was 262 nM.

Reference: patent US20250161408A1, “PEPTIDIC INHIBITORS OF AMYLOID SELF- AND CROSS-ASSEMBLY” (TECHNISCHE UNIVERSITÄT MÜNCHEN, priority 2022, published 2025)
